Laboratory results from article PMC2836968 (Molecular Biology of the Cell, 2010).

Target: human Hsp90β (human, UniProt P08238 1-724)
Assay: SPR

human Hsp90β, sequence (P08238 whole entry): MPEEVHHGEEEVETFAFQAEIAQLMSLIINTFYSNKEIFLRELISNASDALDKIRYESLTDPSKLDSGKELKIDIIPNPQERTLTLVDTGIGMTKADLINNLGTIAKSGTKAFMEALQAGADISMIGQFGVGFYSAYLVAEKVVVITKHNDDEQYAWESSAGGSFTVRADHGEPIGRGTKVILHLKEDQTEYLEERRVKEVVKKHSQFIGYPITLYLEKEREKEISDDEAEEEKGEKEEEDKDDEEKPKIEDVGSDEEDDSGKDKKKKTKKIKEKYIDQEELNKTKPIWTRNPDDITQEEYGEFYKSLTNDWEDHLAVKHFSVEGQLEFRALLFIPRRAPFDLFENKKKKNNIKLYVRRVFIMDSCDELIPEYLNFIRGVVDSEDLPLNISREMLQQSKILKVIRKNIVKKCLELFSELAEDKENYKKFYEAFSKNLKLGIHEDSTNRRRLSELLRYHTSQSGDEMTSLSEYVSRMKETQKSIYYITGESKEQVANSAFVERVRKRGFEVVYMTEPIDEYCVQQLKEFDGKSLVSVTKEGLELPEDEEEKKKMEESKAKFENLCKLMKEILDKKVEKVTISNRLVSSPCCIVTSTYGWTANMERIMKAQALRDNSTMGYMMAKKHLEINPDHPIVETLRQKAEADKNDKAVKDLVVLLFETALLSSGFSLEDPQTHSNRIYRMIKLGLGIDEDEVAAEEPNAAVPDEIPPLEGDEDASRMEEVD

B1: Aha1 N-terminal domain (amino acids 1-162) (domain or fragment)
chain: MAKWGEGDPRWIVEERADATNVNNWHWTERDASNWSTDKLKTLFLAVQVQNEEGKCEVTEVSKLDGEASINNRKGKLIFFYEWSVKLNWTGTSKSGVQYKGHVEIPNLSDENSVDEVEISVSLAKDEPDTNLVALMKEEGVKLLREAMGIYISTLKTEFTQG
**Q.** For B1, which Kd is on record?
**A.** 2.5 µM

B2: Aha1 C-terminal domain (amino acids 163-338, with the linker region 163-200) (domain or fragment)
chain: MILPTMNGESVDPVGQPALKTEERKAKPAPSKTQARPVGVKIPTCKITLKETFLTSPEELYRVFTTQELVQAFTHAPATLEADRGGKFHMVDGNVSGEFTDLVPEKHIVMKWRFKSWPEGHFATITLTFIDKNGETELCMEGRGIPAPEEERTRQGWQRYYFEGIKQTFGYGARLF
**Q.** Which Kd does the source give for B2 here?
**A.** 3.8 µM
